Reference: article doi:10.1101/589119

Molecular target: core Cascade subunits (crRNA, Cas11, Cas7, Cas5, Cas6e) (E. coli K12) (UniProt Q46899)
Experiment: single-particle tracking PALM

Sequence of UniProt Q46899 (Q46899 whole entry, looked up): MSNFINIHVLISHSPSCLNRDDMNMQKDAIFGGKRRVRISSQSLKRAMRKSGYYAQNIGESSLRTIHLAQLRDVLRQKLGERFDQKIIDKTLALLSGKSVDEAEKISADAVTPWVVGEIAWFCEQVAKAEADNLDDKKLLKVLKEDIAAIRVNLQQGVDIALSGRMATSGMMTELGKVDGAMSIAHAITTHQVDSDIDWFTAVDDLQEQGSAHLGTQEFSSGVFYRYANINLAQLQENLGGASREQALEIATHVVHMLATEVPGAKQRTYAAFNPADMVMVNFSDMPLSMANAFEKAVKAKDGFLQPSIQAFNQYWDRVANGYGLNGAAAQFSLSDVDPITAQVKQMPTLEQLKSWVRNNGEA

## PAmCherry2-Cas8e (Cascade subunit Cas8e with a photoactivatable fluorescent protein fused to its N-terminus) (natural protein)
  fraction of Cas8e in Cascade complexes: 60%
